Here are results for four substances from US20110275102A1.

Experiment in all cases: cell-based or functional assay
For test [1], the target named is EE-GSK3β: human GSK3β with the EFMPME (EE) epitope tag at the N-terminus (human) (UniProt P49841).
Test [2] addresses RPRTSAF.
The target in test [3] is RPRTSSPA
For test [4], the target named is PRTSSF.

EE-GSK3β: human GSK3β with the EFMPME (EE) epitope tag at the N-terminus (human), sequence (P49841 other isoform, or with tags, fused parts or gaps): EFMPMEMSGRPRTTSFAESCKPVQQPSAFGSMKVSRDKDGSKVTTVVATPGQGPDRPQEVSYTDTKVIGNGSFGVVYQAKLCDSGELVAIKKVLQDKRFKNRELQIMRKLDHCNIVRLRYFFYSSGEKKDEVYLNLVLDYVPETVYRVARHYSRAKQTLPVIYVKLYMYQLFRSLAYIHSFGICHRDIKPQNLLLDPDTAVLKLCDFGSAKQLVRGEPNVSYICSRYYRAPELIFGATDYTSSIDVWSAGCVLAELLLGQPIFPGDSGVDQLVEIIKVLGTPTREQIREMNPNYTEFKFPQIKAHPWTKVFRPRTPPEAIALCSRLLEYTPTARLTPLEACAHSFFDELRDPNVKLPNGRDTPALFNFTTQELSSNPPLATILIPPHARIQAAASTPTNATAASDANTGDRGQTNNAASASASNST

In the case of “HA-308D/473D-RAC-PKα: constitutively active double mutant (Thr308 and Ser473 changed to Asp) (enzyme)”, the increase in GSK3 activity on PP2A treatment after coexpression in 293 cells in test [1] was 85%.
Consider “HA-KD-RAC-PKα: kinase-dead HA-RAC-PKα in which Lys179 is mutated to Ala (enzyme)”, for which the increase in GSK3 activity on PP2A treatment after coexpression in 293 cells in test [1] came to 12%.
On to “HA-RAC-PKα immunoprecipitated from IGF-1 stimulated 293 cells (enzyme)”, for which the rate of phosphorylation (cell stands under Vmax; may belong to V (0.1 mM)) in test [2], in test [3] and in test [4] was 0 throughout.
On to “HA-RAC-PKα: haemagglutinin epitope-tagged wild-type human RAC-PKα (enzyme)”, for which the increase in GSK3 activity on PP2A treatment after coexpression in 293 cells in test [1] was found to be 68%.
